According to the RNAGym collection of RNA variant scans (doi:10.1093/molbev/msab373):

B1: Azoarcus group I ribozyme (parent)
chain: GUGCCUUGCGCCGGGAAACCACGCAAGGGAUGGUGUCAAAUUCGGCGAAACCUAAGCGCCCGCCCGGGCGUAUGGCAACGCCGAGCCAAGCUUCGGCGCCUGCGCCGAUGAAGGUGUAGAGACUAGACGGCACCCACCUAAGGCAAACGCUAUGGUGAAGGCAUAGUCCAGGGAGUGGCGAAAGUCACACAAACCGG

Variants of: B1
Test: reverse-splicing fitness (ratio to wild type); higher = more active; in vitro selection; Mg2+ level not given
In short: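 An in vitro group I ribozyme library with randomized positions was T7-transcribed and gel-purified. In triplicate, 10 pmol RNA in EPPS pH 7.5 was reacted with 50 pmoles of a 30-nt RNA substrate for 1 h at 37 °C across several added MgCl2 levels (1–48 mM), then stopped with EDTA. Products were reverse transcribed from a substrate-complementary primer, PCR-amplified and sequenced (HiSeq 4000). Fitness is a variant's read proportion after selection over that before, normalised to wild type.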
C82G A111U A120G A145G C150U C169U gave a reverse-splicing fitness of 0.0112. In the case of C82G A111U A120G A145G C150U C169G, the reverse-splicing fitness is reported as 0.0128. Work on C82G A111U A120G A145G C150U C169A yielded a reverse-splicing fitness of 0.0121. C82G A111U A120U A145C C150U C169G U176C gave a reverse-splicing fitness of 0.00262. Work on C82G A111U A120U A145C C150U C169G U176A yielded a reverse-splicing fitness of 0.00298. With C82G A111U A120U A145C C150U C169G U176G the reverse-splicing fitness was 0.0021. In the case of C82G A111U A120G A145G C150A C169A U176C, the reverse-splicing fitness is reported as 0.0216. Variant C82G A111U A120G A145G C150A C169A U176A has a reverse-splicing fitness of 0.0195. In the case of C82G A111U A120G A145G C150A C169A U176G, the reverse-splicing fitness is reported as 0.00669. Work on C82G A111U A120G A145C C150U C169U U176G yielded a reverse-splicing fitness of 0.00513. For C82G A111U A120G A145C C150U C169U U176C, the reverse-splicing fitness was 0.013. C82G A111U A120G A145C C150U C169U U176A gave a reverse-splicing fitness of 0.019. In the case of C82G A111U A120U A145C C150G C169U, the reverse-splicing fitness is reported as 0.00336. Variant C82G A111U A120U A145C C150G C169A has a reverse-splicing fitness of 0.00362. Variant C82G A111U A120U A145C C150G C169G has a reverse-splicing fitness of 0.00344. Work on C82G A111U A120G A145U C150A C169A U176G yielded a reverse-splicing fitness of 0.00527. With C82G A111U A120G A145U C150A C169A U176A the reverse-splicing fitness was 0.0161. C82G A111U A120G A145U C150A C169A U176C showed a reverse-splicing fitness of 0.0142. Work on C82G A111U A120G A145U C150U C169A U176A yielded a reverse-splicing fitness of 0.0149. C82G A111U A120G A145U C150U C169A U176G gave a reverse-splicing fitness of 0.00501. In the case of C82G A111U A120G A145U C150U C169A U176C, the reverse-splicing fitness is reported as 0.0128. C82G A111U A120C C169U U176G gave a reverse-splicing fitness of 0.00561. Variant C82G A111U A120C C169U U176C has a reverse-splicing fitness of 0.0166. In the case of C82G A111U A120C C169U U176A, the reverse-splicing fitness is reported as 0.0163. C82G A111U A120U A145C C150A U176C showed a reverse-splicing fitness of 0.00373. Variant C82G A111U A120U A145C C150A U176G has a reverse-splicing fitness of 0.00209. Work on C82G A111U A120U A145C C150A U176A yielded a reverse-splicing fitness of 0.00311. Variant C82G A111U A120C C150U C169U U176G has a reverse-splicing fitness of 0.00768. For C82G A111U A120G A145C C169U, the reverse-splicing fitness was 0.00836. In the case of C82G A111U A120G A145C C169A, the reverse-splicing fitness is reported as 0.00794. In the case of C82G A111U A120G A145C C169G, the reverse-splicing fitness is reported as 0.0125. C82G A111U A120U A145C C150G C169A U176G showed a reverse-splicing fitness of 0.00246. C82G A111U A120U A145C C150G C169A U176C gave a reverse-splicing fitness of 0.00248. C82G A111U A120U A145C C150G C169A U176A showed a reverse-splicing fitness of 0.00316. For C82G A111U A120G C150U C169A U176C, the reverse-splicing fitness was 0.0182. In the case of C82G A111U A120G C150U C169A U176G, the reverse-splicing fitness is reported as 0.00614. Variant C82G A111U A120G C150U C169A U176A has a reverse-splicing fitness of 0.0173. C82G A111U A120U A145C C150A C169U U176C gave a reverse-splicing fitness of 0.00247. With C82G A111U A120U A145C C150A C169U U176A the reverse-splicing fitness was 0.00306. With C82G A111U A120U A145C C150A C169U U176G the reverse-splicing fitness was 0.00177. Variant C82G A111U A120G A145U C150G C169G U176C has a reverse-splicing fitness of 0.00489. C82G A111U A120G A145U C150G C169G U176G gave a reverse-splicing fitness of 0.00425. C82G A111U A120G A145U C150G C169G U176A showed a reverse-splicing fitness of 0.00644. C82G A111U A120G A145G C150G C169G gave a reverse-splicing fitness of 0.00782. C82G A111U A120G A145G C150G C169A gave a reverse-splicing fitness of 0.00911. With C82G A111U A120G A145G C150G C169U the reverse-splicing fitness was 0.00909. Variant C82G A111U A120G A145U C150U C169G U176C has a reverse-splicing fitness of 0.017. Work on C82G A111U A120G A145U C150U C169G U176G yielded a reverse-splicing fitness of 0.00511. Variant C82G A111U A120G A145U C150U C169G U176A has a reverse-splicing fitness of 0.0145. C82G A111U A120G A145U C150A C169U gave a reverse-splicing fitness of 0.00711. Variant C82G A111U A120G A145U C150A C169G has a reverse-splicing fitness of 0.00835. C82G A111U A120G A145U C150A C169A showed a reverse-splicing fitness of 0.00975. Work on C82G A111U A120U A145C C150A C169G U176C yielded a reverse-splicing fitness of 0.00259. Work on C82G A111U A120U A145C C150A C169G U176A yielded a reverse-splicing fitness of 0.00283. Work on C82G A111U A120U A145C C150A C169G U176G yielded a reverse-splicing fitness of 0.00199. C82G A111U A120U A145C C150A gave a reverse-splicing fitness of 0.00458. In the case of C82G A111U A120U A145C C150U, the reverse-splicing fitness is reported as 0.0116. C82G A111U A120U A145C C150G showed a reverse-splicing fitness of 0.00763. C82G A111U A120G A145U C150G C169U U176G showed a reverse-splicing fitness of 0.00505. In the case of C82G A111U A120G A145U C150G C169U U176A, the reverse-splicing fitness is reported as 0.0111. C82G A111U A120G A145U C150G C169U U176C showed a reverse-splicing fitness of 0.013. C82G A111U A120G A145U C169G U176G showed a reverse-splicing fitness of 0.00405. C82G A111U A120G A145U C169G U176C gave a reverse-splicing fitness of 0.0162. Variant C82G A111U A120G A145U C169G U176A has a reverse-splicing fitness of 0.0119. In the case of C82G A111U A120G A145G C150U C169G U176C, the reverse-splicing fitness is reported as 0.0192. For C82G A111U A120G A145G C150U C169G U176G, the reverse-splicing fitness was 0.00526. With C82G A111U A120G A145G C150U C169G U176A the reverse-splicing fitness was 0.0137. For C82G A111U A120G A145G C150A C169U U176C, the reverse-splicing fitness was 0.0177. C82G A111U A120G A145G C150A C169U U176A gave a reverse-splicing fitness of 0.0204. C82G A111U A120G A145G C150A C169U U176G gave a reverse-splicing fitness of 0.00642. For C82G A111U A120G A145U C169U U176A, the reverse-splicing fitness was 0.0185. Work on C82G A111U A120G A145U C169U U176C yielded a reverse-splicing fitness of 0.0158. Variant C82G A111U A120G A145U C169U U176G has a reverse-splicing fitness of 0.00419. In the case of C82G A111U A120U A145C C150U C169A, the reverse-splicing fitness is reported as 0.00282. C82G A111U A120U A145C C150U C169G showed a reverse-splicing fitness of 0.00286. With C82G A111U A120U A145C C150U C169U the reverse-splicing fitness was 0.00298. Work on C82G A111U A120G C150G C169U U176C yielded a reverse-splicing fitness of 0.0123. For C82G A111U A120G C150G C169U U176A, the reverse-splicing fitness was 0.00893. For C82G A111U A120G C150G C169U U176G, the reverse-splicing fitness was 0.00592. Work on C82G A111U A120G A145G C150G C169A U176G yielded a reverse-splicing fitness of 0.00831. Work on C82G A111U A120G A145G C150G C169A U176C yielded a reverse-splicing fitness of 0.0126. Variant C82G A111U A120G A145G C150G C169A U176A has a reverse-splicing fitness of 0.0133. C82G A111U A120G A145C C150U U176G gave a reverse-splicing fitness of 0.00601.
